Biological target: LegAS4 (84–532aa), RomA homolog of L. pneumophila strain Philadelphia (L. pneumophila strain Philadelphia, UniProt Q5ZUS4 84-532)
Test: crystal structure
Settings: both partners purified

Binder	binding result
H-TKQTARKSTGGKAPR-OH (also called 15-mer peptide; (3-17)-N-terminal H3 P1 peptide) [histone H3 peptide P1 (15-mer, residues 3-17), NH2-TKQTARKSTGGKAPR-COOH]	binds
H-ARTKQTARKSTG-OH (also called 12-mer peptide) [histone H3 peptide P2 (12-mer, residues 1-12), NH2-ARTKQTARKSTG-COOH]	binds

— PMC10653858 (mBio, 2023)
